{
  "source": "paper PMC6594588",
  "key": {"[1]": {"molecular_target": "T1, Flp(Y343F) (S. cerevisiae (2-micron plasmid)) (UniProt P03870)", "T1 sequence": "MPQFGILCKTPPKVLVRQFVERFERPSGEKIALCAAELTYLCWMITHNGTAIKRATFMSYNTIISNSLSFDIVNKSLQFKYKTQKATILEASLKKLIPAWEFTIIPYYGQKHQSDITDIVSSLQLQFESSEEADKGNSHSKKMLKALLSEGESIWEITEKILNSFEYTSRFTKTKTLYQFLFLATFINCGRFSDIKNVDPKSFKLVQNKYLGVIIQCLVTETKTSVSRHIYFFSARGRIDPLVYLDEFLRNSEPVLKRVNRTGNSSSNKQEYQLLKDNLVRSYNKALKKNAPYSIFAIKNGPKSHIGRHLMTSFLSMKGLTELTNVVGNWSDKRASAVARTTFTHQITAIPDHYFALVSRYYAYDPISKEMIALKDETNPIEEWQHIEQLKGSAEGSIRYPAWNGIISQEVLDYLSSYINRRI"}, "[2]": {"molecular_target": "Flp(Y343F)-SUMO (S. cerevisiae (2-micron plasmid) | not stated) (UniProt P03870)"}},
  "data": [
    {"substance": "Flp(R191A)-SUMO (from UniProt P03870 1-423; Q12306 1-96) (enzyme)", "values": [
      {"measurement": "strand cleavage complementation on separately pre-bound half-sites; cleavage yield against that of Flp(R191A) with Flp(Y343F)", "setting": "[1]", "value": 1.5, "unit": "fold"},
      {"measurement": "strand cleavage complementation on separately pre-bound half-sites; cleavage yield against that of Flp(R191A)-SUMO with Flp(Y343F)-SUMO", "setting": "[1]", "value": 1.5, "unit": "fold"},
      {"measurement": "strand cleavage complementation on separately pre-bound half-sites; cleavage yield against that of Flp(R191A) with Flp(Y343F)-SUMO", "setting": "[2]", "value": 1.6, "unit": "fold"}
    ]}
  ]
}
